Experimental findings from paper PMC10085699 are described below.

Series [1] has as its target T1, Sen1-HD (UniProt Q00416 1095-1904).
T1 sequence: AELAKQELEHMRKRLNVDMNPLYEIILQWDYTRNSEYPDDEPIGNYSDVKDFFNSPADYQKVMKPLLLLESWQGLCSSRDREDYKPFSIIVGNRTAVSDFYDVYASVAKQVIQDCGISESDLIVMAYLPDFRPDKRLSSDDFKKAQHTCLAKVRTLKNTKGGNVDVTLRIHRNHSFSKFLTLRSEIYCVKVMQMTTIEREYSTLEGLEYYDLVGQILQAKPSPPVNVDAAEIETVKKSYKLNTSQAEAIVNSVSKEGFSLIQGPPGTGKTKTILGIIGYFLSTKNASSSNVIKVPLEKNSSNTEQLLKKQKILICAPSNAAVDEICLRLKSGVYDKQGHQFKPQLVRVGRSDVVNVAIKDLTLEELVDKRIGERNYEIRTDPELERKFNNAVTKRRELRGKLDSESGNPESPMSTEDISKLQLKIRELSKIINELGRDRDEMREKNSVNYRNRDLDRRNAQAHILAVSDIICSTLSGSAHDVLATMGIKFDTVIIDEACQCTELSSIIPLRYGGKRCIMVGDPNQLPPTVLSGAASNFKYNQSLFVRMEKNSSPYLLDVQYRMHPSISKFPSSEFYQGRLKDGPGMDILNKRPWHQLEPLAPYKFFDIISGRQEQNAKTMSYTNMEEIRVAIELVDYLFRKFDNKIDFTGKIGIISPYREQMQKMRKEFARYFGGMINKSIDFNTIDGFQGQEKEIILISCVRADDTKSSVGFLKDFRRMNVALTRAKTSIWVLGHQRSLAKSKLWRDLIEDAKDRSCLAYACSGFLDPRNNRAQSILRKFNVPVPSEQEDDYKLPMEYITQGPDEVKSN
In words: EMSA. (In general: A gel shift assay detects complexes by their altered migration in electrophoresis.)

For series [2], the target named is T2, SETX-HD-V1884T (Homo sapiens, UniProt Q7Z333 1674-2677, V1884T).
T2 sequence: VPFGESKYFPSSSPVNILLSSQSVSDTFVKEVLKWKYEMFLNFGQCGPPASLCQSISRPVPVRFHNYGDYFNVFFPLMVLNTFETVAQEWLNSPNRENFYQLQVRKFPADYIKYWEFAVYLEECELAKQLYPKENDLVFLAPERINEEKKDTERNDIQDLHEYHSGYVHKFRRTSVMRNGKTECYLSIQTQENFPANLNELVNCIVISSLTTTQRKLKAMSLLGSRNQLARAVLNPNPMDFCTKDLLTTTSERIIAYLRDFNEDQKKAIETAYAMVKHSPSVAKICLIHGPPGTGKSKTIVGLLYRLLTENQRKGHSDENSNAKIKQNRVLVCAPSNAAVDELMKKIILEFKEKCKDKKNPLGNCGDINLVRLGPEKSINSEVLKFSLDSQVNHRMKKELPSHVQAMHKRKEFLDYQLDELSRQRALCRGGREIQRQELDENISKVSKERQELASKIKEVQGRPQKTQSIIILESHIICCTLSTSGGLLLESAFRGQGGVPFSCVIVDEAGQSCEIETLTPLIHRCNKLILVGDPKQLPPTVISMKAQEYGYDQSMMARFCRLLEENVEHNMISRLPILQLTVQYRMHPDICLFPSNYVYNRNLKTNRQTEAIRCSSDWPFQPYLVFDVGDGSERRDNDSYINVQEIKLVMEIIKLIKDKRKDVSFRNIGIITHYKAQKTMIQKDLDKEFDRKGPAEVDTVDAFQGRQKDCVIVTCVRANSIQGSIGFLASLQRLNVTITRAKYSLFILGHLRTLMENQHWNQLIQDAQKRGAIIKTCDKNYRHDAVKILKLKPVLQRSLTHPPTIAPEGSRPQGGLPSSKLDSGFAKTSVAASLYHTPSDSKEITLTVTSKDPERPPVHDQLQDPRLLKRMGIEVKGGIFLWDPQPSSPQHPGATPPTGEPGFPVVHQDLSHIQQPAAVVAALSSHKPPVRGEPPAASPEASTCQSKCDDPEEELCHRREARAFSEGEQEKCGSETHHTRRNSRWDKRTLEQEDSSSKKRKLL
As to the kind of experiment: EMSA.

B1: ssRNA pRMS678 (61 nt) (ssRNA)
RNA: UUGUCUUCUCAUAAAUUUAAUCCCCGUACGCUUAUACUCCUUUAACUACCCAGUCUUCCCG
B1: the binding result in series [1] and in series [2] was “binds” each time.
